According to PMC3835166 (Journal of molecular biology, 2012):

T1: raver1 RRM1-3 (UniProt Q8IY67 39-321)
T1 sequence: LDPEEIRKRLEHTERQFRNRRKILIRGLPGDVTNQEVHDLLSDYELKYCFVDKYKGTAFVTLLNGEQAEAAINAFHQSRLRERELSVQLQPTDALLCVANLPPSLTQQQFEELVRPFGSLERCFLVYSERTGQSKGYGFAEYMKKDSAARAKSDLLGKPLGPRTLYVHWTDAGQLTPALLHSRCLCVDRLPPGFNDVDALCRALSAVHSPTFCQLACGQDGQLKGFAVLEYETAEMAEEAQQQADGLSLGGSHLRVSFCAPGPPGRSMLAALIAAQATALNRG

T2: raver1 RRM2-RRM3 (UniProt Q8IY67 129-321)
T2 sequence: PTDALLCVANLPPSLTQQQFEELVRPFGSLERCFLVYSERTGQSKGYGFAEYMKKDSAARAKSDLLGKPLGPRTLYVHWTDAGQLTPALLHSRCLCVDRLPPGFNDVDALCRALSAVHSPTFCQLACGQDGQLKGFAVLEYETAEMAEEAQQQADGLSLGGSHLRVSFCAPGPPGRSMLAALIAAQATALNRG

T3: full-length human metavinculin (human, UniProt P18206 1-1134)
T3 sequence (looked up): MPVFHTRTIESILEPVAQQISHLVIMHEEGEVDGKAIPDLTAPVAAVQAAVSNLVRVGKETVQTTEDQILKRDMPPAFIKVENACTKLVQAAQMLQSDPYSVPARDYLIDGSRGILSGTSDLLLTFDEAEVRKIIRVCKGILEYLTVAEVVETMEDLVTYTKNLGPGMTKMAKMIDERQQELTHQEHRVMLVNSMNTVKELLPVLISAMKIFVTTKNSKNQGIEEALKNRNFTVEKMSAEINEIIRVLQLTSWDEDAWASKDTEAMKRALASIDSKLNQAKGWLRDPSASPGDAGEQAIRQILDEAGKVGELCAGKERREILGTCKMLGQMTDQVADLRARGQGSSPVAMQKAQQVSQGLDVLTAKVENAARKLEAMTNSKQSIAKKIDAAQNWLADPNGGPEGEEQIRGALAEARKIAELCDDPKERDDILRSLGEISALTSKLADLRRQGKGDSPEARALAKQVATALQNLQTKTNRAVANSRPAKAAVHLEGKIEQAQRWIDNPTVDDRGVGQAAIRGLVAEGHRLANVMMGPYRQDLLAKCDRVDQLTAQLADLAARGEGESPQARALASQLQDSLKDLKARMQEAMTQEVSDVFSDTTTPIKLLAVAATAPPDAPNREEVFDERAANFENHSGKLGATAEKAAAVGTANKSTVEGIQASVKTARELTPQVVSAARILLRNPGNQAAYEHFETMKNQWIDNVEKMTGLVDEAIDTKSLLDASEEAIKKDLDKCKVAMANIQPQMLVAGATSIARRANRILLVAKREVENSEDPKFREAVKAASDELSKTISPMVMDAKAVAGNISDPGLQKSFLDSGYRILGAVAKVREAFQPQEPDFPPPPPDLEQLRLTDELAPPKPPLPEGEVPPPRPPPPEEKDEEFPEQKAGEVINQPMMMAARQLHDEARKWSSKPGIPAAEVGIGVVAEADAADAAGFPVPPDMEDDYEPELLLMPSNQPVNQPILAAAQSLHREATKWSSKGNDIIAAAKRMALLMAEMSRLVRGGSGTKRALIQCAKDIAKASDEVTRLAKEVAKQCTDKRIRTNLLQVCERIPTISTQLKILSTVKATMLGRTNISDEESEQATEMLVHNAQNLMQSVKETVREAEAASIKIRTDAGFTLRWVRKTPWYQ

B1: raver1 RRM1-3 domains (residues 39-321) (domain or fragment, human, UniProt Q8IY67 39-321, looked up)
chain: T1 sequence
B2: MVt (metavinculin tail domain, residues 856-1134) (domain or fragment, human, UniProt P18206 856-1134, looked up)
chain: DELAPPKPPLPEGEVPPPRPPPPEEKDEEFPEQKAGEVINQPMMMAARQLHDEARKWSSKPGIPAAEVGIGVVAEADAADAAGFPVPPDMEDDYEPELLLMPSNQPVNQPILAAAQSLHREATKWSSKGNDIIAAAKRMALLMAEMSRLVRGGSGTKRALIQCAKDIAKASDEVTRLAKEVAKQCTDKRIRTNLLQVCERIPTISTQLKILSTVKATMLGRTNISDEESEQATEMLVHNAQNLMQSVKETVREAEAASIKIRTDAGFTLRWVRKTPWYQ

Tests used:
raver1 RRM1-3 = target: T1, raver1 RRM1-3; assay: EMSA
raver1 RRM2-RRM3 = target: T2, raver1 RRM2-RRM3; assay: EMSA
[1] = target: metavinculin tail MVt;raver1 RRM1-3 (Homo sapiens;Homo sapiens?, UniProt P18206;Q8IY67 856-1134;39-321, |); assay: EMSA
[2] = target: T3, full-length human metavinculin; assay: native gel or EMSA
[3] = target: B1; assay: native gel or EMSA

Binder: UCAUGCAGUCUG (ssRNA) [vinculin RNA 3089-3100]
binding result (raver1 RRM1-3): binds | binding result (raver1 RRM2-RRM3): no binding | binding result [1]: binds

Binder: B1
binding result [2]: binds

Binder: B2
binding result [3]: binds
